Reference: patent US10344077

Assays:
Sm (Smith antigen) [1] = experiment: AtheNA, Ab 6.25 ug/ml
Histones [2] = experiment: AtheNA, Ab 6.25 ug/ml
Jo-1 [3] = biological target: T1, Jo-1 (UniProt P12081); experiment: AtheNA, Ab 6.25 ug/ml
T1 sequence (looked up): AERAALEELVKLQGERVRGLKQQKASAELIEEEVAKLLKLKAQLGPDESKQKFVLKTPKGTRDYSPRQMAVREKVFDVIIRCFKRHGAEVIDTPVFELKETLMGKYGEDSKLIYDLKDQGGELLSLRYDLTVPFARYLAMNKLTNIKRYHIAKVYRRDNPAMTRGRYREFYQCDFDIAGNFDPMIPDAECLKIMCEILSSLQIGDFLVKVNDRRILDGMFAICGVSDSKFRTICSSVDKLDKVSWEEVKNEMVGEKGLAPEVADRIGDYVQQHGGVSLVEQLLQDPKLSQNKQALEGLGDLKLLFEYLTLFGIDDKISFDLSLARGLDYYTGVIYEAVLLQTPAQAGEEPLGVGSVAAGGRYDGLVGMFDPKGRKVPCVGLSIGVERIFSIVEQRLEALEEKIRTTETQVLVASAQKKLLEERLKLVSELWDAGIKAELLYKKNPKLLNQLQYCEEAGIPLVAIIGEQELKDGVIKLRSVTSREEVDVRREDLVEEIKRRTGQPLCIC

Scl-70 [4] = biological target: Scl-70 (UniProt P11387); experiment: AtheNA, Ab 6.25 ug/ml
Sequence of Scl-70 (P11387 2-765 limits assumed): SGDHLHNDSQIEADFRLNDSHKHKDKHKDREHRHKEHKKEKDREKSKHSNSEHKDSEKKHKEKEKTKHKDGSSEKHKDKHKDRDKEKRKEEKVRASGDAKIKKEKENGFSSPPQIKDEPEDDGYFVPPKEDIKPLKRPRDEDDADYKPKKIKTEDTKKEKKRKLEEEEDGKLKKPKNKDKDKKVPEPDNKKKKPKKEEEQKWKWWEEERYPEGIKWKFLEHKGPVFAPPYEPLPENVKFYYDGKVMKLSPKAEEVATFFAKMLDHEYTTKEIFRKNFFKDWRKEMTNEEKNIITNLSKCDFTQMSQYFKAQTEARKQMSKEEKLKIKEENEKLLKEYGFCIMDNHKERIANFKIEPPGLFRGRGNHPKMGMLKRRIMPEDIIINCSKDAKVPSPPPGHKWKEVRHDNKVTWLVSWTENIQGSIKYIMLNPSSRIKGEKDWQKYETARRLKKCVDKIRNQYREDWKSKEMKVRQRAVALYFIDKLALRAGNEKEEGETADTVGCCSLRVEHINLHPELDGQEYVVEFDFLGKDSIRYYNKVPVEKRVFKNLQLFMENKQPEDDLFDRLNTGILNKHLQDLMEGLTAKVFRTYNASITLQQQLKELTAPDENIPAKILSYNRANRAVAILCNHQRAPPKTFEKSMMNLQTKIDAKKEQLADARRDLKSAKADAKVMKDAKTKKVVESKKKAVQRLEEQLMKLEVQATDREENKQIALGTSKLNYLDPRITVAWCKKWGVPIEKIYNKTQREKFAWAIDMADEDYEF

RNP (ribonucleoprotein) [5] = experiment: AtheNA, Ab 6.25 ug/ml
SSB [6] = biological target: SSB (UniProt P05455); experiment: AtheNA, Ab 6.25 ug/ml
Sequence of SSB (P05455 whole entry): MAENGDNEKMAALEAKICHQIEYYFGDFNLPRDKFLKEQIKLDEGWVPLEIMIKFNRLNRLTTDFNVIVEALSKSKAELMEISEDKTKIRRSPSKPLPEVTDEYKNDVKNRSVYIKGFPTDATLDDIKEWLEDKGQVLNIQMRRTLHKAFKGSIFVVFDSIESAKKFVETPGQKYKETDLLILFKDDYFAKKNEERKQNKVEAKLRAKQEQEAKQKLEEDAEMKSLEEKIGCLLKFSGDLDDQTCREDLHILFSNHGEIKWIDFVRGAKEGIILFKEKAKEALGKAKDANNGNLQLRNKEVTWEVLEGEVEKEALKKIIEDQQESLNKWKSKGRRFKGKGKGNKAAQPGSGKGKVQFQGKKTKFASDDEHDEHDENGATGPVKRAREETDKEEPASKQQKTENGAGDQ

SSA [7] = experiment: AtheNA, Ab 6.25 ug/ml
Centromere B [8] = biological target: T2, Centromere B (UniProt P07199); experiment: AtheNA, Ab 6.25 ug/ml
T2 sequence (looked up): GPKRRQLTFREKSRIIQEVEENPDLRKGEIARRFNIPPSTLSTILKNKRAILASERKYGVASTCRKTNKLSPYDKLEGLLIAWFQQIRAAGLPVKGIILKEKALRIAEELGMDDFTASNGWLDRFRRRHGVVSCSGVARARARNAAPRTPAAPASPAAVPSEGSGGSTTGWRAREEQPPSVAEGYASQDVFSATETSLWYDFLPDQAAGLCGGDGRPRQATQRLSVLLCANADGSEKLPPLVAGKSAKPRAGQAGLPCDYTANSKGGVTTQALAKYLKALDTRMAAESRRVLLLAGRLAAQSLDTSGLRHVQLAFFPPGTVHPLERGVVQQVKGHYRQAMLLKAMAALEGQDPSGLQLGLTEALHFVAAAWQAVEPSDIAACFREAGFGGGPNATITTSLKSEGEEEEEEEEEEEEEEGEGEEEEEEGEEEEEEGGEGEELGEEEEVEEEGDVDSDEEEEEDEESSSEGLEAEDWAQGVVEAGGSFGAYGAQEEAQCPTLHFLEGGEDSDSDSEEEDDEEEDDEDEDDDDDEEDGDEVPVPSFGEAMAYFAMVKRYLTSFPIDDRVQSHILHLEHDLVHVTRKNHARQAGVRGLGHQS

Jo-1 [9] = biological target: T1, Jo-1; experiment: AtheNA, Ab 50 ug/ml
SSB [10] = biological target: SSB (UniProt P05455); experiment: AtheNA, Ab 50 ug/ml
Jo-1 [11] = biological target: T1, Jo-1; experiment: AtheNA, Ab 50 ug/ml; remark: listed apart in the source
SSB [12] = biological target: SSB (UniProt P05455); experiment: AtheNA, Ab 50 ug/ml; remark: listed apart in the source
Sm (Smith antigen) [13] = experiment: AtheNA, Ab 12.5 ug/ml
Histones [14] = experiment: AtheNA, Ab 12.5 ug/ml
Jo-1 [15] = biological target: T1, Jo-1; experiment: AtheNA, Ab 12.5 ug/ml
Scl-70 [16] = biological target: Scl-70 (UniProt P11387); experiment: AtheNA, Ab 12.5 ug/ml
RNP (ribonucleoprotein) [17] = experiment: AtheNA, Ab 12.5 ug/ml
SSB [18] = biological target: SSB (UniProt P05455); experiment: AtheNA, Ab 12.5 ug/ml
SSA [19] = experiment: AtheNA, Ab 12.5 ug/ml
Centromere B [20] = biological target: T2, Centromere B; experiment: AtheNA, Ab 12.5 ug/ml
Sm (Smith antigen) [21] = experiment: AtheNA, Ab 25 ug/ml
Histones [22] = experiment: AtheNA, Ab 25 ug/ml
Jo-1 [23] = biological target: T1, Jo-1; experiment: AtheNA, Ab 25 ug/ml
Scl-70 [24] = biological target: Scl-70 (UniProt P11387); experiment: AtheNA, Ab 25 ug/ml
RNP (ribonucleoprotein) [25] = experiment: AtheNA, Ab 25 ug/ml
SSB [26] = biological target: SSB (UniProt P05455); experiment: AtheNA, Ab 25 ug/ml
SSA [27] = experiment: AtheNA, Ab 25 ug/ml
Centromere B [28] = biological target: T2, Centromere B; experiment: AtheNA, Ab 25 ug/ml
Sm (Smith antigen) [29] = experiment: AtheNA, Ab 25 ug/ml; remark: listed apart in the source
Histones [30] = experiment: AtheNA, Ab 25 ug/ml; remark: listed apart in the source
Jo-1 [31] = biological target: T1, Jo-1; experiment: AtheNA, Ab 25 ug/ml; remark: listed apart in the source
Scl-70 [32] = biological target: Scl-70 (UniProt P11387); experiment: AtheNA, Ab 25 ug/ml; remark: listed apart in the source
RNP (ribonucleoprotein) [33] = experiment: AtheNA, Ab 25 ug/ml; remark: listed apart in the source
SSB [34] = biological target: SSB (UniProt P05455); experiment: AtheNA, Ab 25 ug/ml; remark: listed apart in the source
SSA [35] = experiment: AtheNA, Ab 25 ug/ml; remark: listed apart in the source
Centromere B [36] = biological target: T2, Centromere B; experiment: AtheNA, Ab 25 ug/ml; remark: listed apart in the source

4E10 IgG1 (antibody)
Athena reading (relative luminescence units) (Sm (Smith antigen) [1]): 3
Athena reading (relative luminescence units) (Histones [2]): 6
Athena reading (relative luminescence units) (Jo-1 [3]): 113
Athena reading (relative luminescence units) (Scl-70 [4]): 1
Athena reading (relative luminescence units) (RNP (ribonucleoprotein) [5]): 3
Athena reading (relative luminescence units) (SSB [6]): 178
Athena reading (relative luminescence units) (SSA [7]): 17
Athena reading (relative luminescence units) (Centromere B [8]): 2
Athena reading (relative luminescence units) (Jo-1 [9]): 227
Athena reading (relative luminescence units) (SSB [10]): 207
Athena reading (relative luminescence units) (Jo-1 [11]): 190
Athena reading (relative luminescence units) (SSB [12]): 263
Athena reading (relative luminescence units) (Sm (Smith antigen) [13]): 3
Athena reading (relative luminescence units) (Histones [14]): 7
Athena reading (relative luminescence units) (Jo-1 [15]): 131
Athena reading (relative luminescence units) (Scl-70 [16]): 0
Athena reading (relative luminescence units) (RNP (ribonucleoprotein) [17]): 3
Athena reading (relative luminescence units) (SSB [18]): 199
Athena reading (relative luminescence units) (SSA [19]): 21
Athena reading (relative luminescence units) (Centromere B [20]): 1
Athena reading (relative luminescence units) (Sm (Smith antigen) [21]): 46
Athena reading (relative luminescence units) (Histones [22]): 24
Athena reading (relative luminescence units) (Jo-1 [23]): 206
Athena reading (relative luminescence units) (Scl-70 [24]): 4
Athena reading (relative luminescence units) (RNP (ribonucleoprotein) [25]): 20
Athena reading (relative luminescence units) (SSB [26]): 189
Athena reading (relative luminescence units) (SSA [27]): 81
Athena reading (relative luminescence units) (Centromere B [28]): 9
Athena reading (relative luminescence units) (Sm (Smith antigen) [29]): 2
Athena reading (relative luminescence units) (Histones [30]): 10
Athena reading (relative luminescence units) (Jo-1 [31]): 160
Athena reading (relative luminescence units) (Scl-70 [32]): 1
Athena reading (relative luminescence units) (RNP (ribonucleoprotein) [33]): 3
Athena reading (relative luminescence units) (SSB [34]): 227
Athena reading (relative luminescence units) (SSA [35]): 33
Athena reading (relative luminescence units) (Centromere B [36]): 3
